Positions count from the first letter of the chain named.
T1: HCV bt-151-171 (Peptide 3, HCVc 151-171) (Hepatitis C virus (numbering per HCV-1), biotin (carboxy-terminal per; N-terminal per))
T1 peptide: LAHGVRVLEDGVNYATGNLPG

T2: HCV bt-134-154 (Peptide 1, HCVc 134-154) (Hepatitis C virus (numbering per HCV-1), biotin (carboxy-terminal per; N-terminal per))
T2 peptide: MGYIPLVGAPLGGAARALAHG

T3: HCV bt-141-161 (Peptide 2, HCVc 141-161) (Hepatitis C virus (numbering per HCV-1), biotin (carboxy-terminal per; N-terminal per))
T3 peptide: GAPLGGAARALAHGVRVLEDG

B1: HCV 208A-222 (antibody, V domains shown)
VH: EVQLQQSGPELEKPGASVRISCKTSGYTFTEYAMHWVKQSHGKSLEWIGGINPNNGNAIYNQIFKDKATLTVDRSSSTAYMGLRSLTFGDSGVYFCVRRQLDYFDYWGQGASLTVSS
VL: DIVVTQSPASLAVSLGQRATISCRASQSVSTSRYSYLHWYQQKPGQPPKLLIKYASNLESGVPARFSGSGSGTDFTLNIHPVGEEDTATYYCQHSWEFPFTFGSGTKLEIKR
B2: HCV 208A-605 (antibody, V domains shown)
VH: B1 VH with R19K, M34I, K43M, N54S, Y103F
VL: B1 VL
B3: HCV 208A-638 (antibody, V domains shown)
VH: QGQLQQPGAEFVKPGASLKLSCRASGYTFTSYWIHWVKQRPGQGLEWIGEVDPSDSYINQNEKFRGKATLTVDKSSSTAYMQLGSLTSEDSAVYYCARHYYGVLDSWGQGTALTVSS
VL: QIVLTQSPTIMSASLGERVTMTCTASSSVSSSYLHWFQQKPGSSPKLWIYSTSNLASGVPPRFSGSGSGTSYSLSISSVEAEDVATYYCLQFHRSPWTFGGGAKLEIKR
B4: HCV 208A-134 (antibody, V domains shown)
VH: QGQMQQSGAELAKPGASVKLSCKTSGFTFSSSYISWLKQKPGQSLEWIAWIYAGTGNTNYNQKFTDKAQLTVDTSSSTAYMQLSSLTTEDSAIYYCAISGTGFTYWGQGTLVTVSA
VL: EVLMTQSPLSLPVSLGDQASISCRSSQSLEHTNGNTYLEWFLQRPGQPPKLLIYKVSSRFSGVPDRFSGSGSGTDFTLKISRVEAEDLGVYYCFQGSHVPFTFGSGTKLAIKR
B5: HCV 208A-830 (antibody, V domains shown)
VH: EVRLQQPGPEVEKPGASVKISCKTSGYTFTEYAIHWVKQSHGESLEWIGGINPSNGDPIYNQIFKDKATLTVDRSSNTAYMGLRSLTVGDSGVYFCVRRQLDYFDFWGQGASLTVSS
VL: B1 VL with V4L, A25S, T87P
B6: HCV 208A-874 (antibody, V domains shown)
VH: QVQLQQPGAELVKPGASVKLSCKASGYTLSSYWMHWVKQRPGQGLEWIGEIHPSDSYTSYNQKFKDKATLTVDKSSSTAYMQLSSLTSEDSAVYYCARGGYYRYDEFAYWGQGTLVTVSA
VL: DIVMTQSHKFMSTSIGDRVSITCKASQNVSPAVAWYQQKPGQSPKLLIYSASSRYTGVPDRFTGSGSGTAFTFTISSVQAEDLAVYFCQQHFSTPWTFGGGTMLEIKR
B7: HCV 208A-877 (antibody, V domains shown)
VH: QLQQSGPELVKPGASVKISCKTSGYTFTENAMHWVKQSRGKSLEWIGGVNPNNGDTVYTQKFKGKATLTVAKSSSTAYMELRTMTCEESTVYYCASREPDFFDYWGQGSSVTVSS
VL: QIVLTQSPAIMSVSPGEKVSMTCSASSSVTYMHWYQQKSGTSPKRWIYDTSELASGVPARFSGSGSGTTYSLTISSMEAEDAATYYCQQWSNKPLTFGAGTKLELKR
B8: HCV 208B-1024 (antibody, V domains shown)
VH: EVQLVESGGDLVKPGGSLKLSCAASGFTFSNYGMSWVRQTPDKRLEWVATISSGGSYSYYPDSVKGRFTISRDNAKNILYLQMSSLKSEDTAMYYCASLYYGYGDYWGQGTAFTVSS
VL: DVLMTQTPLSLPVSLGDQASISCRSSQSIVHSNGNTYLEWYLQKLGQSPKLLIYRVSNRFSGVPDRFSGSGSGTDFTLKISRVEAEDLGVYYCFQGSHVPWTFGGGTKLEIKR
B9: HCV 208B-589 (antibody, V domains shown)
VH: QVQLQQSGAGLAKPGASVKMSCKASGYTFTANKMHWAKQRPGQGLEWIGYIDPSSGYTEYNHKIQDKATLTADTSSSTAYMQLSSLTFEDSAVYYCTNFAYWGQGTLVTVSA
VL: DIVMTQTPLTLSVTIGQPASISCKSSQSLLFTNGKTYLNWFLQRPGQSPKRLIYLLSKLDSGVPDRFSGSGSGTDFTLKISRVEAEDLGVYYCLQSTYFPLTFGAGTKLELKR
B10: HCV 208B-174 (antibody, V domains shown)
VH: EVKLEESGGGLVQPGGSMKLSCVASGFSFSSYWMSWVRQSPEKGLDWVAEIRLRSDNYATHYAESVKGRFTISRDDSISRLYLQMNTLRAEDTGIYYCTWMTYWGQGTLVTVSA
VL: QNVLTQSPAIMSASPGEKVTMSCSASSSVTYMFWYQLKPESSPRLLIYDTSNLASGVPVRFSGSGSGTSYSLTISRMEAEDAATYYCQEWSSYPLTFGAGTKLDLKR
B11: HCV 208B-178 (antibody, V domains shown)
VH: DVKLVESGGGLVKLGGSLKLSCAASGFTFSSYYMSWVRQTPEKRLELVAAINSNGGSTYYPDTVKGRFTISRDNAKNTLYLQMSSLKSEDTALYYCARHGGLGRRDWYFDVWGAGTTVTVSS
VL: DIVLTQSPASLAVSLGQRATISCRASESVDNYGISFMHWYQQKPGQPPKLLIYRASNLESGIPARFSGSGSRTDFTLTINPVETDDVATYYCQQSNKDPFTFGSGAKLEIKR
B12: HCV 208B-189 (antibody, V domains shown)
VH: QVHLQQSGAELAKPGASVQMSCKASGYTFTANKMHWARQRPRQGLEWIGYIDPASGYTEYNQKIKDRATLTADKSSSTAYMQLSSLTSEDSAVYYCTNFAYWGQGTLVTVST
VL: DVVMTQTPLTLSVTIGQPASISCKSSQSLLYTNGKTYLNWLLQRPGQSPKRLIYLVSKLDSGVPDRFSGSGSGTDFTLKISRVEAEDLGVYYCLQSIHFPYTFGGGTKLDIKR
B13: HCV 208B-327 (antibody, V domains shown)
VH: EVQLVESGGGLVKPGGSLKLSCAASGFTFSDSYMYWVRQTPDQRLEWVATISDGGSYTFYPDSVKGRFTISRDNAQNNLYLQMSSLKSEDTAMYYCASPHAGYFGWFAYWGRGTLVTVSA
VL: DIVMTQAAFSNPVTPGTSVSISCRSSKSLLHSNGITYLYWYLQKPGQSPQLLIYQMSKIASGVPDRFRSSGSGTDFTLRISRVEAADVGVYYCAQNLELPWTFGGGTKLEIKR
B14: HCV 208B-353 (antibody, V domains shown)
VH: EVQLVESGGDLVKPGGSLKLSCAASGFTFNHYGMSWVRQPPDKRLEWVATISSGGGYTYYPDSVKGRFTISRDNAKDTLSLQMSSLRSGDTAVYYCASLYGSLFAYWGQGTLVTVSA
VL: DIVMTQSQKFMSTTVGDRVRVTCKASQNVGTAVAWYQQKPGQSPKLLIYSASNRYTGVPDRFTGSGSGTDFTLTITNMQSEDLADYFCQQYSTYPLTFGSGAKLEIKR
B15: HCV 208B-395 (antibody, V domains shown)
VH: B9 VH with A37T, E59Q
VL: DIVLTQSPATLSVTPGDRVSLSCRASQRIYNYLHWYQQKSHESPRLLIKYASQSISGIPSRFSGSGSGTDFILTINSVETEDFGMYFCQQSNSWPLTFGAGTKLELRR
B16: HCV 208B-471 (antibody, V domains shown)
VH: QGQLQQSGPVLVKPGASEILYCKTSGFTFSSTYISWLKQKPGQSLEWIAWIYAGTGATNYNQKFTGKAQLTVDASSNTAYMHFSGLTPEDSAIYYCAISGAGVYWGQGTLVTVSA
VL: DVVMTQTPLSLPVSLGDQASISCRSSQSLLHSNGNTYLEWYLQKPGQSPNLLIYNVSNRFSGVPDRFSGSGSGTDFALKISRVGAEDLGVYYCFQGSHVPLTFGAGTKLELKR
B17: HCV 208B-515 (antibody, V domains shown)
VH: QVQLQQPGAELVKPGASLKLSCRASGYTFTSYWIHWVKQRPGQGLEWIGEIDPSDSYTNYNQKFKGKATLTVDKSSRAAYMQLSSLTSEDSAVYYCARHYYGVFDSWGQGTKLTVSS
VL: QIVFTQYPAIMSASLGERVTMTCTASSSVTSSYLHWFQQKPGSSPKLWIYSTSNPGSGVPARFSGRGSGTSYSLSISSMEAEDAATYYCLQFHRSPWTFGGGTKLEIRR
B18: HCV 208B-517 (antibody, V domains shown)
VH: QVQLKQSGPGLVQPSQSLSITCTVSGFSLITHGVHWVRQSPGKGLEWLGVIWSGGSTDYNAAFISRLSISKDTSKSQVFLKMSSLQADDTAIYYCARNGGATAFDYWGQGTTLTVSS
VL: DIVMTQSPATLSVTPGDRVSLSCRASQSISDYLHWYQQKSHESPRLLIKYASQSISGIPSRFRGSGSGSHFTLSINSVEPEDVGVYYCQNGHSFPWTFGGGTKLEIKR
B19: HCV 208B-547 (antibody, V domains shown)
VH: B9 VH with G10E, A31S, H62Q, Q65K, T74K, F88S
VL: EVVLTQSPAITAASLGQKVTITCRASSSVSYMHWYRQKSGTSPQPWIYEISTLASGVPTRFRASGSGTSYSLTISSMEAEDAAIYYCQQWNYPLTFGAGTKLELKR

Legend:
Test in all cases: EIA, captured mAb + biotin peptide
[1] = molecular target: T1, HCV bt-151-171 (Peptide 3, HCVc 151-171)
[2] = molecular target: T2, HCV bt-134-154 (Peptide 1, HCVc 134-154)
[3] = molecular target: T3, HCV bt-141-161 (Peptide 2, HCVc 141-161)

Row | Binder | Reactivity (OD 492 nm) [1] [OD units] | Reactivity (OD 492 nm) [2] [OD units] | Reactivity (OD 492 nm) [3] [OD units]
1 | B1 | 0.08 | 0.06 | 2.7
2 | B2 | 0.16 | 0.22 | 3.71
3 | B3 | 0.09 | 0.07 | 2.96
4 | B4 | 0.06 | 2.06 | 0.08
5 | B5 | 0.08 | 0.07 | 2.88
6 | B6 | 0.06 | 0.05 | 0.73
7 | B7 | 0.05 | 0.06 | 1.21
8 | B8 | 0.15 | 0.08 | 0.75
9 | B9 | 2.85 | 0.27 | 0.1
10 | B10 | 0.07 | 0.08 | 1.26
11 | B11 | 1.69 | 0.1 | 0.07
12 | B12 | 3.95 | 0.55 | 0.15
13 | B13 | 0.49 | 0.07 | 0.05
14 | B14 | 0.07 | 0.07 | 2.47
15 | B15 | 3.69 | 0.54 | 0.13
16 | B16 | 0.08 | 1.62 | 0.11
17 | B17 | 0.06 | 0.51 | 0.13
18 | B18 | 0.7 | 0.1 | 0.41
19 | B19 | 2.9 | 0.12 | 0.08

Reference: patent US20170052184A1 (published 2017)
